For two substances, response results are on record in article PMC9995687.

The target of this test is Human STIM1, N-terminally ECFP-tagged, Q13586-1. The experiment in a line: FRET microscopy (Eapp) in cells. Particulars: read off a plot.

On to “Human Orai1 wild-type, C-terminally YFP-labelled (from UniProt Q96D31-1) A137Bpa”, for which the response is, setting by setting: (+TG (1 μM), +UV, n = 8) 0.11 Eapp; (+TG (1 μM), -UV, n = 8) 0.11 Eapp; (-TG, +UV, n = 8) 0.01 Eapp; (-TG, -UV, n = 8) 0.008 Eapp.

On to “Orai1 A137Bpa, C-terminally YFP-labelled (from UniProt Q96D31-1) L273D”, for which the response came out at 0.004 Eapp (+TG (1 μM), +UV, n = 9, parent: est. 0.11); 0.002 Eapp (+TG (1 μM), -UV, n = 9, parent: est. 0.11); 0.003 Eapp (-TG, +UV, n = 9, parent: est. 0.010); 0.006 Eapp (-TG, -UV, n = 9, parent: est. 0.008).
